The values below come from US20050053913A1 (Johns Hopkins, published 2005).

For the assay, the target named is T1, GAL4-DB (amino acids 1-147) expressed alone (yeast, UniProt P04386 1-147).
T1 construct: range 1-147; Negative control, not fused to another polypeptide; also called pPC97
In words: yeast reporter SPAL5:URA3, growth on Sc-ura and 5-FOA.

T1 sequence (P04386 1-147 limits assumed): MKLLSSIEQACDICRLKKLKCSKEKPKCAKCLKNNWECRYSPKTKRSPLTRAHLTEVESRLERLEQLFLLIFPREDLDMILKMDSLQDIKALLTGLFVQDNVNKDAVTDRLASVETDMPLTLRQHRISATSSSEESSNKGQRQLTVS
Source text: In this example, we employed the SPAL5:URA3 allele, which carries 5 GBSs.

B1: GAL4-AD (amino acids 768-881) expressed alone (other, yeast, UniProt P04386 768-881, looked up)
chain: ANFNQSGNIADSSLSFTFTNSSNGPNLITTQTNSQALSQPIASSNVHDNFMNNEITASKIDDGNNSKPLSPGWTDQTAYNAFGITTGMFNTTTMDDVYNYLFDDEDTPPNPKKE
notes: range 768-881; Negative control, not fused to another polypeptide; also called AD empty (pPC86); pPC86
B1: the binding result is listed as “no binding”.
